From US20200332015A1 (NAMAB THERAPEUTICS, published 2020)
Positions count from the first letter of the chain named. “And” between values parts separate entries of the source, which are not always exact repeats. Equal values may be shown once. Read-outs that look alike come from different tables or passages of the source.

T1: mouse Fc-tagged mouse CD137 (R&D Systems, cat. 937-4B-050) (mouse, UniProt P20334 24-187)
T1 construct: also called mouse CD137-Fc chimeric protein
T1 sequence (looked up): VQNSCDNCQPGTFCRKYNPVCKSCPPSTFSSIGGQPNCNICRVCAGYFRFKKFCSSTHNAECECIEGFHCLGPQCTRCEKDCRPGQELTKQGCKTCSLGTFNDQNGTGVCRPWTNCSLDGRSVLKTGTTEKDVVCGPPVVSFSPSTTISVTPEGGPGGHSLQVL

B1: urelumab (antibody, V domains shown)
VH: QVQLQQWGAGLLKPSETLSLTCAVYGGSFSGYYWSWIRQSPEKGLEWIGEINHGGYVTYNPSLESRVTISVDTSKNQFSLKLSSVTAADTAVYYCARDYGPGNYDWYFDLWGRGTLVTVSS
VL: EIVLTQSPATLSLSPGERATLSCRASQSVSSYLAWYQQKPGQAPRLLIYDASNRATGIPARFSGSGSGTDFTLTISSLEPEDFAVYYCQQRSNWPPALTFGGGTKVEIK
B2: PRO997 (37-20-B03 CDR, scFv) (scFv)
scFv: DIQMTQSPSSLSASVGDRVTITCQASQSIGTYLAWYQQKPGKAPKLLIYRAFILASGVPSRFSGSGSGTDFTLTISSLQPEDFATYYCQSNFYSDSTTIGPNAFGTGTKVTVLGGGGGSGGGGSGGGGSGGGGSQVQLQESGPGLVKPSETLSLTCKVSGFSFNSDYWIYWIRQPPGKGLEWIGSIYGGSSGNTQYASWAQGRVTISVDSSKNQFSLKLSSVTAADTAVYYCARGYVDYGGATDLWGQGTLVTVSS
notes: also called anti-PDL1 scFv PRO997
B3: PRO951 (38-27-C05 sc02 scDb-i/33-03-G02 sc01 scDb-o) (bispecific antibody)
chain: DIQMTQSPSSLSASVGDRVTITCQASQSINDYLAWYQQKPGKAPKLLIYKASTLASGVPSRFSGSGSGTDFTLTISSLQPEDFATYYCQQGYIITDIDNVFGTGTKVTVLGGGGGSEVQLVESGGGLVQPGGSLRLSCAASGFSFNNDYDMCWVRQAPGKGLEWIGCIDTGDGSTYYASWAKGRFTISRDNSKNTVYLQMNSLRAEDTAVYYCAREAASSSGYGMGYFDLWGQGTLVTVSSGGGGSGGGGSGGGGSGGGGSIQMTQSPSSLSASVGDRVTITCQSSQSVYDNNWLAWYQQKPGKAPKLLIYRASNLASGVPSRFSGSGSGTDFTLTISSLQPEDFATYYCQGTYLSSNWYWAFGTGTKVTVLGGGGGSQVQLQESGPGLVKPSETLSLTCKVSGFSFSSGYDMCWIRQPPGKGLEWIGCVVAGSVDITYYASWAKGRVTISVDSSKNQFSLKLSSVTAADTAVYYCARKDAYSDAFNLWGQGTLVTVSS
notes: scDb, PDL1 x CD137
B4: PRO885 (38-02-A04 sc01 scDb-i/33-03-G02 sc01 scDb-o) (bispecific antibody)
chain: DIQMTQSPSSLSASVGDRVTITCQASQSINDYLAWYQQKPGKAPKLLIYKASTLASGVPSRFSGSGSGTDFTLTISSLQPEDFATYYCQQGYIITDIDNVFGTGTKVTVLGGGGGSQVQLQESGPGLVKPSETLSLTCKVSGFSFSNSYWICWIRQPPGKGLEWIGCTFVGSSDSTYYANWAKGRVTISVDSSKNQFSLKLSSVTAADTAVYYCARHPSDAVYGYANNLWGQGTLVTVSSGGGGSGGGGSGGGGSGGGGSIQMTQSPSSLSASVGDRVTITCQASQSINNVLAWYQQKPGKAPKLLIYRASTLASGVPSRFSGSGSGTDFTLTISSLQPEDFATYYCQSSYGNYGDFGTGTKVTVLGGGGGSQVQLQESGPGLVKPSETLSLTCKVSGFSFSSGYDMCWIRQPPGKGLEWIGCVVAGSVDITYYASWAKGRVTISVDSSKNQFSLKLSSVTAADTAVYYCARKDAYSDAFNLWGQGTLVTVSS
notes: scDb, PDL1 x CD137; also called anti-PDL1xCD137 scDb
B5: PRO1124 (38-02-A04 sc06 Full scDb-i/33_03_G02 scDb-o) (bispecific antibody)
chain: B4 chain with V140A, I154V, V190K, F197V, Y213F, I261L, A302P
notes: scDb; also called PR01124

Columns and labels:
[1] = biological target: T2, human CD137 expressed on Jurkat cells (human, UniProt Q07011 24-255); test: cell-based or functional assay
[2] = biological target: T2, human CD137 expressed on Jurkat cells; test: cell-based or functional assay; remark: listed apart in the source
[3] = biological target: T2, human CD137 expressed on Jurkat cells; test: cell-based or functional assay; remark: listed apart in the source
[4] = biological target: T2, human CD137 expressed on Jurkat cells; test: cell-based or functional assay; remark: listed apart in the source
[5] = biological target: T2, human CD137 expressed on Jurkat cells; test: cell-based or functional assay; remark: listed apart in the source
[6] = biological target: T2, human CD137 expressed on Jurkat cells; test: cell-based or functional assay; remark: listed apart in the source
[7] = biological target: T2, human CD137 expressed on Jurkat cells; test: cell-based or functional assay; remark: listed apart in the source
[8] = biological target: human PDL1 on cells (antigen-presenting cells and T cells of SEA stimulated human PBMC) (human, UniProt Q9NZQ7 19-290); test: cell-based or functional assay
[9] = biological target: cynomolgus PDL1-Fc chimeric protein (cynomolgus, UniProt G7PSE7 19-238); test: SPR T200, antigen-Fc captured, molecule as analyte
Sequence of cynomolgus PDL1-Fc chimeric protein (G7PSE7 entry or part of it mutant): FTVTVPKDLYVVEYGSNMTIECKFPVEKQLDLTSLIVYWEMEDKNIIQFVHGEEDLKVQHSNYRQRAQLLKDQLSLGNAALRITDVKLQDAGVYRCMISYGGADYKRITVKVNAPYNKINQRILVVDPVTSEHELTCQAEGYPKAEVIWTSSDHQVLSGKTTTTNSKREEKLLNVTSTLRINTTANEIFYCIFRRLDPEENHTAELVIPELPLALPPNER
Method in brief: (§1)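 Apparent KD, ka and kd come from a one-to-one Langmuir model. Species Fc proteins were captured on an immobilized anti-Fc surface, and analyte at 0.12-90 nM (three-fold series) was flowed 3 min with 10-min dissociation; surfaces were stripped with 3 M MgCl₂.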

[10] = biological target: human PDL1-Fc chimeric protein (human, UniProt Q9NZQ7 19-238, limits assumed); test: SPR T200, antigen-Fc captured, molecule as analyte
Method in brief: as §1

[11] = biological target: T2, human CD137 expressed on Jurkat cells; test: cell-based or functional assay; remark: listed apart in the source
[12] = biological target: T3, Fc tagged human CD137 (R&D Systems, cat. 838-4B-100) (human, UniProt Q07011 24-186); test: SPR T200, antigen-Fc captured, molecule as analyte
T3 construct: also called CD137 Fc chimera; human CD137-Fc chimeric protein
Method in brief: as §1

[13] = biological target: T1, mouse Fc-tagged mouse CD137 (R&D …); test: SPR T200, antigen-Fc captured, molecule as analyte
Method in brief: as §1

[14] = biological target: T4, cynomolgus monkey Fc-tagged CD137 (R&D Systems, cat. 9324-4B-100) (cynomolgus monkey, UniProt A9YYE7 24-186); test: SPR T200, antigen-Fc captured, molecule as analyte
T4 construct: also called cynomolgus CD137-Fc chimeric protein
T4 sequence (A9YYE7 entry or part of it): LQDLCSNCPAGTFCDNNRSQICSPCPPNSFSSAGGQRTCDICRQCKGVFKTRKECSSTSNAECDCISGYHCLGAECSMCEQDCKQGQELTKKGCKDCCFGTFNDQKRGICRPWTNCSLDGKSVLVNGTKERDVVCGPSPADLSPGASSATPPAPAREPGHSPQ
Method in brief: as §1

[15] = biological target: T2, human CD137 expressed on Jurkat cells; test: cell-based or functional assay; remark: listed apart in the source
[16] = biological target: T2, human CD137 expressed on Jurkat cells; test: cell-based or functional assay; remark: listed apart in the source
[17] = biological target: T3, Fc tagged human CD137 (R&D Systems, …); test: SPR T200, antigen-Fc captured, molecule as analyte; remark: listed apart in the source

Row | Binder | EC50 NFkB-luciferase, HCC827 with IFNy [1] | EC50 NFkB-luciferase, CHO-PDL1 cells [2] [µg/mL] | EC50 NFkB-luciferase, CHO-PDL1 cells, 6 h [3] [µg/mL] | EC50 NFkB-luciferase, CHO-PDL1 cells, 6 h, + HSA [3] [µg/mL] | Top of curve fit, NFkB-luciferase, CHO-PDL1 cells, 6 h, + HSA [3] | EC50 NFkB-luciferase, CHO-PDL1 cells [4] | EC50 NFkB-luciferase, HCC827 without IFNy [5] | EC50 NFkB-luciferase, HCC827 with IFNy stimulation [6] [µg/mL] | EC50 NFkB-luciferase, HCC827 without IFNy stimulation [6] [µg/mL] | Kd [10] [nM] | koff [10] [s⁻¹] | kon [10] [M⁻¹ s⁻¹] | max. activation, NF-kB reporter gene, CHO-PD-L1 [11] [%] | rel. IC50 (urelumab/test), NF-kB reporter gene, CHO-PD-L1 [11] [ratio] | Kd [12] [nM] | koff [12] [s⁻¹] | kon [12] [M⁻¹ s⁻¹] | Kd [14] [nM] | koff [14] [s⁻¹] | kon [14] [M⁻¹ s⁻¹] | other results
1 | B1 | 0.114 µg/mL and 0.145 µg/mL and 0.108 µg/mL | 0.0791 | 0.0565 | 0.0777 | 106 | 0.0865 µg/mL and 0.0795 µg/mL and 0.104 µg/mL | 0.212 µg/mL and 0.11 µg/mL and 0.112 µg/mL | 0.0528 | 0.0475 |  |  |  |  |  |  |  |  |  |  |  | EC50 NFkB-luciferase, CHO-PDL1 cells, 24 h [7]: 0.0466 µg/mL; EC50 NFkB-luciferase, CHO-PDL1 cells, 24 h, + HBA (so in the source) [7]: 0.0782 µg/mL; Top of curve fit, NFkB-luciferase, CHO-PDL1 cells, 24 h, + HBA (so in the source) [7]: 90.5
2 | B2 |  |  |  |  |  |  |  |  |  | ≤ 0.0017 | < 1e-05 | 5.9e+06 |  |  |  |  |  |  |  |  | EC50 of IL-2 secretion, SEA stimulated PBMC, 96 h [8]: 0.0409 µg/mL; Kd [9]: < 0.00167 nM; koff [9]: < 1e-05 s⁻¹; kon [9]: 6e+06 M⁻¹ s⁻¹
3 | B3 |  | 0.0337 |  |  |  |  |  |  |  | 0.07 | 0.00015 | 2.2e+06 | 432 | 2.35 | 4.2 | 0.0063 | 1.5e+06 | 6.9 | 0.01 | 1.5e+06 | binding result [13]: no binding (tested: 0.12-90 nM)
4 | B4 | 0.00927 µg/mL and 0.00888 µg/mL and 0.00923 µg/mL | 0.0117 | 0.00784 | 0.00792 | 493 | 0.0063 µg/mL and 0.00513 µg/mL and 0.00486 µg/mL | 0.0115 µg/mL and 0.0131 µg/mL and 0.013 µg/mL | 0.00751 | 0.00952 | 0.065 | 0.00014 | 2.1e+06 | 499 | 6.75 | 3.2 | 0.00076 | 240000 | 2.1 | 0.0007 | 340000 | EC50 of IL-2 secretion, SEA stimulated PBMC, 96 h [15]: 0.0399 µg/mL; EC50 of IL-2 secretion, PBMC + CHO-PDL1 50,000 cells/well, anti-CD3 1 ug/ml [16]: 0.0129 µg/mL; EC50 of IL-2 secretion, PBMC + CHO-PDL1 50,000 cells/well, anti-CD3 2 ug/ml [16]: 0.052 µg/mL; EC50 of IL-2 secretion, PBMC + CHO-PDL1 100,000 cells/well, anti-CD3 1 ug/ml [16]: 0.0862 µg/mL; EC50 of IL-2 secretion, PBMC + CHO-PDL1 100,000 cells/well, anti-CD3 2 ug/ml [16]: 0.0419 µg/mL; EC50 of IL-2 secretion, PBMC + CHO-PDL1 200,000 cells/well, anti-CD3 1 ug/ml [16]: 0.0806 µg/mL; EC50 of IL-2 secretion, PBMC + CHO-PDL1 200,000 cells/well, anti-CD3 2 ug/ml [16]: 0.0301 µg/mL; EC50 NFkB-luciferase, CHO-PDL1 cells, 24 h [7]: 0.0138 µg/mL; EC50 NFkB-luciferase, CHO-PDL1 cells, 24 h, + HBA (so in the source) [7]: 0.0149 µg/mL; Top of curve fit, NFkB-luciferase, CHO-PDL1 cells, 24 h, + HBA (so in the source) [7]: 258; max. activation, HCC827 +IFNg [11]: 134%; max. activation, HCC827 -IFNg [11]: 111%; rel. IC50 (urelumab/test), HCC827 +IFNg [11]: 16.3 ratio; rel. IC50 (urelumab/test), HCC827 -IFNg [11]: 8.42 ratio; Kd [13]: 600 nM; koff [13]: 0.18 s⁻¹; kon [13]: 290000 M⁻¹ s⁻¹
5 | B5 | 0.00483 µg/mL |  |  |  |  | 0.00368 µg/mL | 0.00562 µg/mL |  |  | 0.067 | 0.0002 | 3.1e+06 | 229 | 23.5 | ≤ 0.015 | < 1e-05 | 680000 | 0.59 | 0.00033 | 560000 | Top of curve fit, NFkB-luciferase, HCC827 with IFNy [1]: 188; fold improvement of affinity against PRO885 [17]: > 200 fold; Top of curve fit, NFkB-luciferase, CHO-PDL1 cells [4]: 229; Top of curve fit, NFkB-luciferase, HCC827 without IFNy [5]: 113; max. activation, HCC827 +IFNg [11]: 188%; max. activation, HCC827 -IFNg [11]: 113%; rel. IC50 (urelumab/test), HCC827 +IFNg [11]: 22.4 ratio; rel. IC50 (urelumab/test), HCC827 -IFNg [11]: 19.9 ratio; Kd [13]: 11 nM; koff [13]: 0.0022 s⁻¹; kon [13]: 200000 M⁻¹ s⁻¹
